Experimental data published in US20240110154A1, “Engineered NKT Cells for Expansion and In Vivo Preservation and Methods of Use for the Control of Tumor Cells” (Baylor College of Medicine, priority 2021, published 2024).

Tested on: NKTs
Experiment: CD62L expression by flow cytometry on day 12 after antigenic stimulation of NKTs treated with Wnt activators
Assay type: cell-based, human
Conditions: for development of CD62L+ NKTs: day 12
Method: PBMC of healthy donors (at least 18 years old) are isolated by gradient centrifugation from buffy coats purchased from Gulf Coast Regional Blood Center. NKTs are purified by anti-iNKT microbeads (Miltenyi Biotec). The negative PBMC fraction is irradiated (40 Gy) and aliquoted. NKTs are stimulated with an aliquot of autologous PBMCs pulsed with 100 ng/niL αGalCer (Kyowa Hakko Kirin). Recombinant IL-2 (200 U/ml, National Cancer Institute Frederick) is added every other day in complete RPMI (HyClone RPMI 1640, 10% heat inactivated fetal bovine serum and 2 mM Glutamax). NKTs are expanded for 10 days and then re-stimulated with autologous PBMC (irradiated with 40 Gy) or Ramos cells as aAPC (irradiated with 100 Gy) when indicated. On day 3 after re-stimulation, 24 well, non-tissue culture plates are coated with retronectin (Takara Bio) and after washing inoculated with 1 ml of retroviral supernatant containing the constructs shown in FIG. 27 and described above and spun for 60 min at 4600 G. The viral supernatant is then removed and stimulated NKTs are added to the wells in complete media and 200 U/ml rhIL-2. Cells are removed from the plate after 48 h, washed, re-suspended at the concentration 10^6 cell/ml in complete RPMI with 200 U/ml IL-2 and plated for continued expansion. NKT-cell number is determined by Trypan Blue (Life technologies) counting. When indicated, NKTs or CAR-NKTs are labeled with CD62L-PE mAb (GREG-56, BD Biosciences) and anti-PE microbeads (Miltenyi) followed by magnetic sorting into CD62L+ and CD62L− subsets according to the manufacturer's instructions. The phenotype of the sorted cells was determined by FACS.
NKTs are stimulated as described in Example 2 but treated with three separate doses of PBS or 500 ng/mL Wnt3a given on day 0, 3 and 7 after antigenic stimulation. CD62L expression is examined by flow cytometry on day 12 after antigenic stimulation. […]
Following primary stimulation, NKTs are cultured with IL-2 or IL-2/IL-21 for 12 days. […] CD62L expression is analyzed by flow cytometry at the end of expansion.

Molecule | development of CD62L+ NKTs (one dose 5 μM on day 7 after antigenic stimulation vs DMSO, n=6 donors) | development of CD62L+ NKTs (500 ng/mL on day 0, 3 and 7 vs PBS, n=3 donors) | CD62L frequency (500 ng/ml on days 0, 1, 2, culture with IL-2 or IL-2/IL-21 for 12 days)
Nc1cccc(-c2cc3c(Oc4cccc(O)c4)ncnc3[nH]2)c1 [TWS119, reference compound] | promotes development of CD62L+ NKTs | – | –
Wnt3a: recombinant Wnt3a, Wnt ligand (protein, UniProt P56704 19-352, looked up) Protein Wnt-3a: SYPIWWSLAVGPQYSSLGSQPILCASIPGLVPKQLRFCRNYVEIMPSVAEGIKIGIQECQHQFRGRRWNCTTVHDSLAIFGPVLDKATRESAFVHAIASAGVAFAVTRSCAEGTAAICGCSSRHQGSPGKGWKWGGCSEDIEFGGMVSREFADARENRPDARSAMNRHNNEAGRQAIASHMHLKCKCHGLSGSCEVKTCWWSQPDFRAIGDFLKDKYDSASEMVVEKHRESRGWVETLRPRYTYFKVPTERDLVYYEASPNFCEPNPETGSFGTRDRTCNVSSHGIDGCDLLCCGRGHNARAERRREKCRCVFHWCCYVSCQECTRVYDVHTCK | – | promotes development of CD62L+ NKTs | works additively with IL-21 to increase CD62L frequency
